Laboratory results taken from patent EP4371564A2.

Molecular target: integrin molecules on human cells
Assay: cell-based or functional assay

B1: RGD-Hoc (SEQ ID NO: 19), P18056 1-376 (protein)
chain: CDCRGDCFCSAMTFTVDITPKTPTGVIDETKQFTATPSGQTGGGTITYAWSVDNVPQDGAEATFSYVLKGPAGQKTIKVVATNTLSEGGPETAEATTTITVKNKTQTTTLAVTPASPAAGVIGTPVQFTAALASQPDGASATYQWYVDDSQVGGETNSTFSYTPTTSGVKRIKCVAQVTATDYDALSVTSNEVSLTVNKKTMNPQVTLTPPSINVQQDASATFTANVTGAPEEAQITYSWKKDSSPVEGSTNVYTVDTSSVGSQTIEVTATVTAADYNPVTVTKTGNVTVTAKVAPEPEGELPYVHPLPHRSSAYIWCGWWVMDEIQKMTEEGKDWKTDDPDSKYYLHRYTLQKMMKDYPEVDVQESRNGYIIHKTALETGIIYTYPKLAAALEHHHHHH
- luciferase activity: 5 fold
